Test results as given in patent publication US6897049B1, “Proteins producing an altered immunogenic response and methods of making and using the same” (Genencor International, Inc., priority 1998, dated 2005).
Where a chain is given by its changes, count along the chain named. Names may count otherwise.

How the values were obtained:
naïve human CD4+ T-cells = test: T-cell proliferation assay with differentiated dendritic cells and naïve human CD4+ T-cells (tritium incorporation); assay type: cell-based; conditions: using the methods herein
Description: Fresh human peripheral blood cells were collected from “naïve” humans, i.e., persons not known to be exposed to or sensitized to Bacillus lentus protease, for determination of antigenic epitopes in protease from Bacillus lentus and human subtilisin. Naïve humans is intended to mean that the individual is not known to have been exposed to or developed a reaction to protease in the past. Peripheral mononuclear blood cells (stored at room temperature, no older than 24 hours) were prepared for use as follows: Approximately 30 mls of a solution of buffy coat preparation from one unit of whole blood was brought to 50 ml with Dulbecco's phosphate buffered solution (DPBS) and split into two tubes. […] The cell density of the resultant solution was measured by hemocytometer. Viability was measured by trypan blue exclusion.
From the resulting solution, a differentiated dendritic cell culture was prepared from the peripheral blood mononuclear cell sample having a density of 10^8 cells per 75 ml culture flask in a solution as follows: • (1) 50 ml of serum free AIM V media (Gibco) was supplemented with a 1:100 dilution beta-mercaptoethanol (Gibco). […] Adherent and non-adherent cells were then centrifuged at 600 G for 5 minutes, washed in DPBS and counted. • (4) The prepared dendritic cells were placed into a 96 well round bottom array at 2×10^4/well in 100 microliter total volume of AIM V media. […]

Hartley guinea pigs = test: Guinea pig model of immunogenicity, antigen-specific IgG titers by direct ELISA; assay type: in vivo
Description: Guinea pig immunizations: Adult female Hartley guinea pigs were immunized with various doses of B. amyloliquefaciens subtilisin and GP002. The doses were 1, 5, 10, and 20 μg/dose. There were four animals for each dose. Animals were immunized subcutaneously with enzyme in Complete Freund's Adjuvant for the first immunization. All subsequent immunizations were performed in Incomplete Freund's adjuvant. Animals were immunized, and a serum sample taken, every two weeks.
ELISA: A direct ELISA was performed. Costart EIA plates were coated with 10 μg/ml of the immunizing enzyme in PBS overnight at 4° C. Plates were washed and blocked with 1% BSA in PBS. Serum samples were diluted in 1% BSA/PBS, and incubated on the enzymes coated plates for 1 hour. Serum samples were washed out, and biotinylated anti-guinea pig IgG was added at a 1:10,000 dilution in 1% BSA/PBS. The secondary reagent was incubated for 1 hour. The wells were washed, and avidin conjugated horse radish peroxidase was added to the wells at a 1:1000 dilution in 1% BSA/PBS. After 30 minutes, the substrate (ABTS) was added and the OD405 was read after 30 minutes.
Calculation of titers: Background was subtracted from the OD readings, and the results plotted for each individual guinea pig. […] The titer value was calculated from the linear regression equation for an OD=0.5. […]

guinea pig splenocytes = test: T cell epitope mapping with splenocytes of immunized guinea pigs (thymidine incorporation); assay type: cell-based; conditions: guinea pigs immunized with 20 μg subtilisin; 15-mer peptides at 5 μM; >10 animals
Description: B. lentis and B. amyloliquefaciens subtilisin T cell epitope mapping: Guinea pigs were immunized with 20 μg/immunization of subtilisin from either B. lentis or B. amyloliquefaciens. Animals were immunized subcutaneously in adjuvant every two weeks for 10 to 12 weeks. A single cell suspension of guinea pig splenocytes was created from each animal's spleen. Cells were plated at 5×10^5 splenocytes per well in round bottom 96 well plates. 15-mer peptides off-set by 3 amino acids were synthesized by Mimotopes. Peptides were resuspended to 1 mM in DMSO. Peptides were added to the cells at a final concentration of 5 μM. Cultures were incubated for 5 days at 37°, 5% CO2. Wells were pulsed with 0.5 μCi tritiated thymidine, and allowed to incubate for an additional 18 hours. Wells were harvested, and thymidine incorporation assessed.

[1] = system: HLA DR3/DQ2 transgenic mice; test: Immunization of HLA-DR3/DQ2/C2D transgenic mice, antigen-specific IgG by direct ELISA; assay type: in vivo; conditions: 2 x 50 μg i.p.
Description: Adult male HLA-DR31DQ2/C2D mice were immunized with 50 μg of FNA or FNA Variant emulsified in Complete Freund's Adjuvant. The immunization was administered intraperitoneally. Two weeks later, the mice received another intraperitoneal immunization of 50 μg FNA or the Variant emulsified in Incomplete Freund's Adjuvant. One week later, the mice were bled via the retro-orbital route, and the serum collected. Serum was assessed for antigen-specific IgG antibodies in a direct ELISA protocol. Briefly, 96 well flat-bottomed EIA plates were coated overnight with 10 μg/ml of denatured FNA. Plates were washed, blocked with 1% Fetal Calf Serum, and serum was titered out at 1:10 dilutions. The serum was washed out of the wells, and antigen-specific IgG was detected with horse radish peroxidase conjugated anti-mouse IgG. Results are presented as serum dilution versus average optical density (×1000) in Table 1 and FIG. 21.

B1: proteinase K: Proteinase K from Tritirachium Album limber (protein, UniProt P06873 106-384, looked up)
Proteinase K: AAQTNAPWGLARISSTSPGTSTYYYDESAGQGSCVYVIDTGIEASHPEFEGRAQMVKTYYYSSRDGNGHGTHCAGTVGSRTYGVAKKTQLFGVKVLDDNGSGQYSTIIAGMDFVASDKNNRNCPKGVVASLSLGGGYSSSVNSAAARLQSSGVMVAVAAGNNNADARNYSPASEPSVCTVGASDRYDRRSSFSNYGSVLDIFGPGTSILSTWIGGSTRSISGTSMATPHVAGLAAYLMTLGKTTAASACRYIADTANKGDLSNIPFGTVNLLAYNNYQA
immunogenic response compared with other commercially available proteases (naïve human CD4+ T-cells): lower immunogenic response

B2: Bacillus amyloliquefaciens subtilisin: Bacillus amyloliquefaciens subtilisin (BPN′), SEQ ID NO: 3 (protein)
chain: AQSVPYGVSQIKAPALHSQGYTGSNVKVAVIDSGIDSSHPDLKVAGGASMVPSETNPFQDNNSHGTHVAGTVAALNNSIGVLGVAPSASLYAVKVLGADGSGQYSWIINGIEWAIANNMDVINMSLGGPSGSAALKAAVDKAVASGVVVVAAAGNEGTSGSSSTVGYPGKYPSVIAVGAVDSSNQRASFSSVGPELDVMAPGVSIQSTLPGNKYGAYNGTSMASPHVAGAAALILSKHPNWTNTQVRSSLENTTTKLGDSFYYGKGLINVQAAAQ
immunogenicity in Hartley strain guinea pigs (Hartley guinea pigs): comparatively non-immunogenic
T cell epitopes found (guinea pig splenocytes): none

B3: FNA: BPN′ with a Y217L substitution; precursor of the variant (protein, UniProt P00782 108-382, looked up, variant Y217L)
Subtilisin BPN': B2 chain with Y217L
average optical density (×1000), antigen-specific IgG ([1]; serum dilution 10): 2937.5
average optical density (×1000), antigen-specific IgG ([1]; serum dilution 100): 2476
average optical density (×1000), antigen-specific IgG ([1]; serum dilution 1000): 1695
average optical density (×1000), antigen-specific IgG ([1]; serum dilution 10000): 641.5
average optical density (×1000), antigen-specific IgG ([1]; serum dilution 100000): 207
average optical density (×1000), antigen-specific IgG ([1]; serum dilution 1000000): 129.5
average optical density (×1000), antigen-specific IgG ([1]; serum dilution 10000000): 88.5

B4: B. lentis subtilisin: subtilisin protease from Bacillus lentus (GG36), SEQ ID NO: 6 (protein)
chain: AQSVPWGISRVQAPAAHNRGLTGSGVKVAVLDTGISTHPDLNIRGGASFVPGEPSTQDGNGHGTHVAGTIAALNNSIGVLGVAPSAELYAVKVLGASGSGSVSSIAQGLEWAGNNGMHVANLSLGSPSPSATLEQAVNSATSRGVLVVAASGNSGAGSISYPARYANAMAVGATDQNNNRASFSQYGAGLDIVAPGVNVQSTYPGSTYASLNGTSMATPHVAGAAALVKQKNPSWSNVQIRNHLKNTATSLGSTNLYGSGLVNAEAATR
immunogenicity in Hartley strain guinea pigs (Hartley guinea pigs): highly immunogenic
T cell epitopes found (guinea pig splenocytes): Two
